From article PMC11772769, “Selective cargo and membrane recognition by SNX17 regulates its interaction with Retriever” (EMBO Reports, 2024) come the findings set out here.

For orientation: Kd means the concentration at which binding is half-saturated.

B1: unnamed (parent)
chain 1: MHFSIPETESRSGDSGGSAYVAYNIHVNGVLHCRVRYSQLLGLHEQLRKEYGANVLPAFPPKKLFSLTPAEVEQRREQLEKYMQAVRQDPLLGSSETFNSFLRRAQQETQQVPTEEVSLEVLLSNGQKVLVNVLTSDQTEDVLEAVAAKLDLPDDLIGYFSLFLVREKEDGAFSFVRKLQEFELPYVSVTSLRSQEYKIVLRKSYWDSAYDDDVMENRVGLNLLYAQTVSDIERGWILVTKEQHRQLKSLQEKVSKKEFLRLAQTLRHYGYLRFDACVADFPEKDCPVVVSAGNSELSLQLRLPGQQLREGSFRVTRMRCWRVTSSVPLPSGSTSSPGRGRGEVRLELAFEYLMSKDRLQWVTITSPQAIMMSICLQSMVDELMVKKSGGSIRKMLRRRVGGTLRRSDSQQAVKSPPLLESPDATRESMVKLSSKLSAVSLRGIGSPSTDASASDVHGNFAFEGIGDEDL
chain 2: not shown

This experiment covers variants of B1. Nature of the experiment: fluorescence anisotropy. The conditions noted are these: with partner chain of the complex shown; 5-FAM-labeled L2 14-mer peptide. (Fluorescence polarisation rises when a labelled molecule tumbles more slowly, as on binding a larger partner.)
For the variant chain 1 W321A, the dissociation constant (Kd) worked out at 76 µM.
The figure for chain 1 H457A is 1.1 µM.
